Experiments:
[1] = target: hemolysin B (HlyB), ABC transporter of the HlyA type I secretion system (E. coli) (UniProt P08716)
[2] = target: hemolysin B (HlyB), ABC transporter of the HlyA type I secretion system (E. coli) (UniProt P08716); remark: listed apart in the source
[3] = target: HlyB∆CLD, truncated HlyB lacking the N-terminal C39 peptidase-like domain (E. coli)

UniProt P08716, sequence (P08716 whole entry, the tested form may be a part): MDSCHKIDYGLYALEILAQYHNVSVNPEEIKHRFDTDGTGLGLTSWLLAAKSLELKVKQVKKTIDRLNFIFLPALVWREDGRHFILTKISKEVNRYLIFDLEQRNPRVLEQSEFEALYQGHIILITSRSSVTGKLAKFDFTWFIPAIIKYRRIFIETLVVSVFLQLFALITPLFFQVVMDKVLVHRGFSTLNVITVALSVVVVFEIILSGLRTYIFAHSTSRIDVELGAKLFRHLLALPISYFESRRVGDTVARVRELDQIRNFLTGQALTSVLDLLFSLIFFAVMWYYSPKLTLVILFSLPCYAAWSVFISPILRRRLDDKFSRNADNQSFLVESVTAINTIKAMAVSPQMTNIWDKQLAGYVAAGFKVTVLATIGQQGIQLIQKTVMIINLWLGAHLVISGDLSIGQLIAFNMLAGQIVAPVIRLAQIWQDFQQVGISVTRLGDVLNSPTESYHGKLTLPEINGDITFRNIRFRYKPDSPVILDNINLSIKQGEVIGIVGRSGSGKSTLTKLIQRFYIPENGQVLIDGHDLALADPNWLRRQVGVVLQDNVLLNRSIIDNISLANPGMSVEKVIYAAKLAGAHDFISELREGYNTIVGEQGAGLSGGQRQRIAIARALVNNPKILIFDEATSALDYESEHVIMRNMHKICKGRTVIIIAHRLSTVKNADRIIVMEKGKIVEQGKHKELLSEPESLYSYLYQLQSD

proHlyA, full-length hemolytically inactive (non-acylated) precursor form of hemolysin A (from UniProt P08715 1-1024) (natural protein)
inhibition of the basal ATPase activity of HlyB reconstituted with LPC/DOPC mixtures or LPC alone in saposin-A nanoparticles, with 10 µM unfolded proHlyA [1]: 40%
inhibition of the basal ATPase activity of HlyB in LPC-saposin-A nanoparticles by unfolded proHlyA, 0-10 µM, 4 mM ATP, 25 °C [2]: 30%
stimulation of ATP hydrolysis of HlyB in LPC-saposin-A nanoparticles by folded proHlyA (Ca2+), 0-10 µM, 4 mM ATP, 25 °C [2]: 60%
stimulation of the basal ATPase activity of HlyB∆CLD in LPC-saposin-A nanoparticles by folded proHlyA, 0-10 µM (Michaelis-Menten fit with substrate inhibition) [3]: 2 fold
stimulation of the basal ATPase activity of HlyB∆CLD in LPC-saposin-A nanoparticles by unfolded proHlyA, 0-10 µM, with strong substrate inhibition at higher concentrations [3]: 4 fold

Reference: publication PMC6558041
